Each block holds one molecule with its values, some of them ahead of it.
Key:
[1] = target: native phenolic acid decarboxylase from Neolentinus lepideus strain BRFM15 (NlePAD) (Neolentinus lepideus (strain BRFM15)); assay: SEC; purified native NlePAD on a Superdex 75 Prep Grade column in buffer A (20 mM sodium phosphate pH 7.5, 0.4 M saccharose, 2 mM DTT); calibrated with BSA, alpha-amylase, ovalbumin, casein and lysozyme; native mass 43-45 kDa compared with the 22 kDa band in SDS-PAGE
purified protein = substrate: COc1cc(/C=C/C(=O)O)ccc1O; assay: purified protein; conditions: pH 6, 50 mM sodium phosphate, 45 °C, 0.5-10 mM substrate, 30 min, apparent KM
[2] = substrate: COc1cc(/C=C/C(=O)O)cc(OC)c1O; assay: HPLC of canolol formed, Lineweaver-Burk plot; format: biochemical, Neolentinus lepideus; conditions: pH 6, 50 mM sodium phosphate, 37 °C, 0.5-10 mM substrate, 30 min, apparent KM

- stoichiometry N [1]: 2
Molecule: native phenolic acid decarboxylase from Neolentinus lepideus strain BRFM15 (NlePAD) (enzyme)

B1: NlePAD (Neolentinus lepideus HHB14362 ss-1) (protein)
chain: MSHEGATSEEFKQIEGKRFKYTYGLGWTYEMYFRSLTRCVYRILSGPLAGRVNFQHAHYQKIRDNVWQCSWLEETGTVVSMVVDFDQQTVKTFATFSRGHWDLPDQAKGWKRNPEDMARWRTLAQKGKDQADKHVLVEHAKMSELTSGQGDLPDIDDSWETM
notes: homodimer 2 x 22 kDa (SEC 43-45 kDa)
- Km (purified protein): 2.6 mM
- kcat/Km (purified protein): 14800 M⁻¹ s⁻¹
- Km [2]: 3.9 mM
- kcat/Km [2]: 1600 M⁻¹ s⁻¹
